{
  "source": "paper PMC10921760",
  "about": "(ACS sensors, 2023)",
  "target": "Recombinant Human Integrin α4β1 Protein, CF (human, UniProt P13612 35-977; P05556 21-728)",
  "sequence (P13612 35-977, chain 1 of 2)": "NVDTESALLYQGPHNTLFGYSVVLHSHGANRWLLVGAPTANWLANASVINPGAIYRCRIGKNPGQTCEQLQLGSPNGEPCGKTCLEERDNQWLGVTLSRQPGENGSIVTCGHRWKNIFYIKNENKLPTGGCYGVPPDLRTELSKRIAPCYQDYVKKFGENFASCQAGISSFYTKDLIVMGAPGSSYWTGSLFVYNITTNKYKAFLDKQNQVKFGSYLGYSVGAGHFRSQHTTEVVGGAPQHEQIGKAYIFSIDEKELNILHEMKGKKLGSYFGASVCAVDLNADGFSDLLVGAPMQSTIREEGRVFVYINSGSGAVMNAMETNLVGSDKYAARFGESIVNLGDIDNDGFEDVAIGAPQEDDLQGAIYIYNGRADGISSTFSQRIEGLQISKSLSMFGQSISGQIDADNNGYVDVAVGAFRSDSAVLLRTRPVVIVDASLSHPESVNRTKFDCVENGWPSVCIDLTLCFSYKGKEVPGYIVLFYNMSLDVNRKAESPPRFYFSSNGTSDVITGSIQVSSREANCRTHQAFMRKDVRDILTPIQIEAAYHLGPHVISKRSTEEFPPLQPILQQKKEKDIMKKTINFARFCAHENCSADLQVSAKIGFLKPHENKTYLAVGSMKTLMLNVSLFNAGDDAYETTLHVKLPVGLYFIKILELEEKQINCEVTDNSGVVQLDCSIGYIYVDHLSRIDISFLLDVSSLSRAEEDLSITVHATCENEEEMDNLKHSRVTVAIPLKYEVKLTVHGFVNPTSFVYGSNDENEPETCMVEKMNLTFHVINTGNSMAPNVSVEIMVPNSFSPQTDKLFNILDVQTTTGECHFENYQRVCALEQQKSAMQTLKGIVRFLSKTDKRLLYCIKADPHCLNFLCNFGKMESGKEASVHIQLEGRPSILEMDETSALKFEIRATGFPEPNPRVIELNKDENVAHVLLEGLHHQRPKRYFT",
  "sequence (P05556 21-728, chain 2 of 2)": "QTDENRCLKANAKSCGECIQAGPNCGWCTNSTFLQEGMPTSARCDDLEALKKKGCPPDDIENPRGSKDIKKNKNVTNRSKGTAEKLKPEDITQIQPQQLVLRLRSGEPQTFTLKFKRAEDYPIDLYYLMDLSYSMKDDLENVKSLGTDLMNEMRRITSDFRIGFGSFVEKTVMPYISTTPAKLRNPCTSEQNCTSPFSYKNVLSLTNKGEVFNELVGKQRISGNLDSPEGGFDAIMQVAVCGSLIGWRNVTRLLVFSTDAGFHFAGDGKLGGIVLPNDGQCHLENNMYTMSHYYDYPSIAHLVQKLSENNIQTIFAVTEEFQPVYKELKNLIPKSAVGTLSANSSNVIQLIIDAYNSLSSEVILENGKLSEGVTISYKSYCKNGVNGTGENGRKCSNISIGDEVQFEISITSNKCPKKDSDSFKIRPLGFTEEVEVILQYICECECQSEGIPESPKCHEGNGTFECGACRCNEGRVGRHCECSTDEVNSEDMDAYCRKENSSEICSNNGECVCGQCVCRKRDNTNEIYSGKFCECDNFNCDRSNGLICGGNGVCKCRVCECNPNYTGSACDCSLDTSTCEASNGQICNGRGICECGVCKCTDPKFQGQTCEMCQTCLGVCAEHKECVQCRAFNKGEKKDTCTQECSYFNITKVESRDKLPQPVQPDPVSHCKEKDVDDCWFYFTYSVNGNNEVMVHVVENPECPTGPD",
  "experiment": "surface enhanced Raman spectroscopy",
  "data": [
    {"binder": "CDPGYIGSR (not fully specified; functionalized onto gold coated magnetic nanoparticles (thiol chemistry of the Cys))", "note": "[Cys-Asp-Pro-Gly-Tyr-Ile-Gly-Ser-Arg (CDPGYIGSR)]", "values": [
      {"measurement": "binding result", "result": "binds"}
    ]}
  ]
}
